In patent publication US20110082421A1:

Key:
[1] = target: AGE-modified bovine serum albumin (AGE-BSA), prepared by incubating BSA in 1.67 M glucose for two months (bovine) (UniProt P02769); assay: FIG. 1D final capacity after cycles of regeneration and ethanol storage (RE), 1 h at 37 C; batch adsorption, competitive ELISA
[2] = target: AGE-modified bovine serum albumin (AGE-BSA), prepared by incubating BSA in 1.67 M glucose for two months (bovine) (UniProt P02769); assay: FIG. 1D RET series, after 6 processing cycles
[3] = target: AGE-modified bovine serum albumin (AGE-BSA), prepared by incubating BSA in 1.67 M glucose for two months (bovine) (UniProt P02769); assay: FIG. 1D initial capacity of the RE series; batch adsorption, competitive ELISA
[4] = target: AGE-modified bovine serum albumin (AGE-BSA), prepared by incubating BSA in 1.67 M glucose for two months (bovine) (UniProt P02769); assay: FIG. 1D RE series, after processing cycles
[5] = target: AGE-modified bovine serum albumin (AGE-BSA), prepared by incubating BSA in 1.67 M glucose for two months (bovine) (UniProt P02769); assay: FIG. 1A thermal stability, final capacity (4 h at 37 C); batch adsorption, competitive ELISA
[6] = target: AGE-modified bovine serum albumin (AGE-BSA), prepared by incubating BSA in 1.67 M glucose for two months (bovine) (UniProt P02769); assay: FIG. 1C final capacity after 34 days in 20% ethanol at 4 C; batch adsorption, competitive ELISA
[7] = target: AGE-modified bovine serum albumin (AGE-BSA), prepared by incubating BSA in 1.67 M glucose for two months (bovine) (UniProt P02769); assay: FIG. 1D final capacity after 6 cycles of regeneration, ethanol storage and 4 h at 37 C (RET); batch adsorption, competitive ELISA
[8] = target: AGE-modified bovine serum albumin (AGE-BSA), prepared by incubating BSA in 1.67 M glucose for two months (bovine) (UniProt P02769); assay: FIG. 1A thermal stability, initial capacity (1 h at 37 C); batch adsorption, competitive ELISA
[9] = target: AGE-modified bovine serum albumin (AGE-BSA), prepared by incubating BSA in 1.67 M glucose for two months (bovine) (UniProt P02769); assay: FIG. 1D initial capacity of the RET series; batch adsorption, competitive ELISA
[10] = target: AGE-modified bovine serum albumin (AGE-BSA), prepared by incubating BSA in 1.67 M glucose for two months (bovine) (UniProt P02769); assay: FIG. 1C initial capacity before storage in 20% ethanol; batch adsorption, competitive ELISA

Sequence of AGE-modified bovine serum albumin (AGE-BSA), prepared by incubating BSA in 1.67 M glucose for two months (bovine) (P02769 25-607 limits assumed): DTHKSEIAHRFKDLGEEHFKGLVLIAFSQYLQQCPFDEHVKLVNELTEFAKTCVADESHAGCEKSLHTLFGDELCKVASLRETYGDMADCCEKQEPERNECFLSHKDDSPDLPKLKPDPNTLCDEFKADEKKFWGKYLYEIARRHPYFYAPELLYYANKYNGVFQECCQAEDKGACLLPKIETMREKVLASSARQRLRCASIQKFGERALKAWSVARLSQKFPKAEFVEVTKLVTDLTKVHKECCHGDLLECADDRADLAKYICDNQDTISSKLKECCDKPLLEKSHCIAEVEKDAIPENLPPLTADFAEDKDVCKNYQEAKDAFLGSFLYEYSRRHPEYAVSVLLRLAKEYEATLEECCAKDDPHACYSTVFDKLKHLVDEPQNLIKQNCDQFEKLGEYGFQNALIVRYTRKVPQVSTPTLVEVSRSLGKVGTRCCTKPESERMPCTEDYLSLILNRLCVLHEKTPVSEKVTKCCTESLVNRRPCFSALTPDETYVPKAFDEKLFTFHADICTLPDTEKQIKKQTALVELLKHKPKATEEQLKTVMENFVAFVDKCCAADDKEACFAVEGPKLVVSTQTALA

RAGE-His construct (extracellular region of human RAGE, amino acid residues 23 through 340, with C-terminal six-histidine tag), immobilized on agarose (from UniProt Q15109 23-340) (receptor)
binding capacity (mg AGE-BSA/ml RAGE gel) [1]: 0.82 | decrease of binding capacity against the initial binding capacity [2]: 16% | binding capacity (mg AGE-BSA/ml RAGE gel) [3]: 0.92 | decrease of binding capacity against the initial value [4]: 10% | binding capacity (mg AGE-BSA/ml RAGE gel) [5]: 0.94 | binding capacity (mg AGE-BSA/ml RAGE gel) [6]: 0.57 | binding capacity (mg AGE-BSA/ml RAGE gel) [7]: 0.79 | binding capacity (mg AGE-BSA/ml RAGE gel) [8]: 0.92 | binding capacity (mg AGE-BSA/ml RAGE gel) [9]: 0.94 | binding capacity (mg AGE-BSA/ml RAGE gel) [10]: 0.6
